Source: patent US20190352418A1 (AGENUS, published 2019)
Where two headings read alike, the source gives them in different places.

Key:
human CD73 on cells [1] = target: T1, human CD73 on cells (human, UniProt P21589 27-549); experiment: cell-based or functional assay
T1 sequence (looked up): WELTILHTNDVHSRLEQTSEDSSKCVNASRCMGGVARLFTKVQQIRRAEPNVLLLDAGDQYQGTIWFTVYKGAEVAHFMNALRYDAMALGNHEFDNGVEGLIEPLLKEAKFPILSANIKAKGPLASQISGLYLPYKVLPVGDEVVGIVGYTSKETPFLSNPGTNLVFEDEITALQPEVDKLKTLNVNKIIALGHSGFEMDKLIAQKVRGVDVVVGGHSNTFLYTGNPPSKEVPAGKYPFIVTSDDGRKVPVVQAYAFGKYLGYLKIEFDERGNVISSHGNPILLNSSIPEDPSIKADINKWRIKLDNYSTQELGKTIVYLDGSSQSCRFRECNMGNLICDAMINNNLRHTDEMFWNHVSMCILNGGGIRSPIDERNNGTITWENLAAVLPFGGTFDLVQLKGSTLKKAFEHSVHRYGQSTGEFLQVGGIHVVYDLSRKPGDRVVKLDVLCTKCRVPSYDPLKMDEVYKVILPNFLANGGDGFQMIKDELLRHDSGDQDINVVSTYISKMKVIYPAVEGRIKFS

human CD73 on cells [2] = target: T1, human CD73 on cells; experiment: cell-based or functional assay; remark: listed apart in the source
[3] = target: T2, recombinant human CD73 protein fused with a 6×His-tag (R&D Systems, 5795EN) (human, UniProt P21589 27-547); experiment: cell-based or functional assay
T2 sequence: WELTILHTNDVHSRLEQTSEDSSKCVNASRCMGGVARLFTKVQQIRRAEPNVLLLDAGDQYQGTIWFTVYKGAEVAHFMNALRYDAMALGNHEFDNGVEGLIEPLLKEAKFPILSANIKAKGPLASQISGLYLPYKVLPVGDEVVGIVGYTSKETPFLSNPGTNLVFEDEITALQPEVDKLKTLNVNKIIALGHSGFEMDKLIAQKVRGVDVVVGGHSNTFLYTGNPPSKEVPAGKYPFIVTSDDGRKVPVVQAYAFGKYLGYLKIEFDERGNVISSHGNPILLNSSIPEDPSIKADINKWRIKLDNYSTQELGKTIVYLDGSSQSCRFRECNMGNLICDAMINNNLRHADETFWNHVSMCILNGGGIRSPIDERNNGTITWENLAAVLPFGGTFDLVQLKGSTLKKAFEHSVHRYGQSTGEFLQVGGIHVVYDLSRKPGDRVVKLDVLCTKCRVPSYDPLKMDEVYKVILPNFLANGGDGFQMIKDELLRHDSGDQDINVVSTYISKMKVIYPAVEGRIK

[4] = target: T2, recombinant human CD73 protein fused …; experiment: SPR; antibody on Protein A chip, CD73-His as analyte
Description: (§1) The sensor chip was regenerated between cycles with a 30-sec injection of 10 mM glycine, pH 1.5. Sensograms were evaluated and fit to a simple Langmuir 1:1 interaction model using the global data analysis option of BiaEvaluation 3.1 software. Data quality was verified by visually inspecting deviations and curve fitting, and by evaluating the parameters of Rmax, Chi2, and Tc.

[5] = target: T3, recombinant cynomolgus CD73 protein fused with a 6×His-tag (Sino Biological, 90192-C08H) (cynomolgus, UniProt A0A2K5V5U7 27-547); experiment: as above
T3 sequence: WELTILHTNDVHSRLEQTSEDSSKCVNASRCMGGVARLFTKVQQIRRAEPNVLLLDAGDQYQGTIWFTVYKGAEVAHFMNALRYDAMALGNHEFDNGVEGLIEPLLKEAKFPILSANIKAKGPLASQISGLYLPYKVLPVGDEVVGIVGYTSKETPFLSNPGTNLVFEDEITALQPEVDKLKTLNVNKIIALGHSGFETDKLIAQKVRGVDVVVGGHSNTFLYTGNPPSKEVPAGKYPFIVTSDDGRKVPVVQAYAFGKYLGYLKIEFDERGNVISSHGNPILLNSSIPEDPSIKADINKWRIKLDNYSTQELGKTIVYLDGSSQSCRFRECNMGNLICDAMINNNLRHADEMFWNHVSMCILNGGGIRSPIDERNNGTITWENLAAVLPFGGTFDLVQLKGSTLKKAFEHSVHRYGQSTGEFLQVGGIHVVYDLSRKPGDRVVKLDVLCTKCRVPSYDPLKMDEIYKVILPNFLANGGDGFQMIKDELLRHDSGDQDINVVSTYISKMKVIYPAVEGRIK
Description: as §1

[6] = target: T4, recombinant mouse CD73 protein fused with a 6×His-tag (R&D Systems, 4488EN) (mouse, UniProt Q61503 29-549, limits assumed); experiment: as above
T4 sequence (looked up): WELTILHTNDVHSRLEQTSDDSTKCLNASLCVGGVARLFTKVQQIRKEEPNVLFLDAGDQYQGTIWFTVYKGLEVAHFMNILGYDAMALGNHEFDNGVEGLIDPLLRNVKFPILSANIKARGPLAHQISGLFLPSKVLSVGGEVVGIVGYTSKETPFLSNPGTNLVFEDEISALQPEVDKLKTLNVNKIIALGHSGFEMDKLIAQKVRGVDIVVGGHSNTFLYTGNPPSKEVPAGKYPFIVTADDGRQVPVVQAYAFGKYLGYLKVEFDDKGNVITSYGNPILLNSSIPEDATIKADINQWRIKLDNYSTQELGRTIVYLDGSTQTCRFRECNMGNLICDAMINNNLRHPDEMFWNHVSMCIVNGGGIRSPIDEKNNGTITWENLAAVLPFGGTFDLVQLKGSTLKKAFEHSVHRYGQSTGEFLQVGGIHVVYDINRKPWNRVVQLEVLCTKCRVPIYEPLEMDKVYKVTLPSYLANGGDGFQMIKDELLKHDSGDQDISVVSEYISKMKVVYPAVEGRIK
Description: as §1

[7] = target: T2, recombinant human CD73 protein fused …; experiment: as above; remark: listed apart in the source
Description: as §1

[8] = target: T3, recombinant cynomolgus CD73 protein …; experiment: as above; remark: listed apart in the source
Description: as §1

human CD73 on cells [9] = target: T1, human CD73 on cells; experiment: flow cytometry on CHO cells expressing human CD73; area under MFI curve
Description: (§2) Briefly, Chinese hamster ovarian (CHO) cells were transduced with lentiviral vectors comprising a mouse, cynomolgus, or human CD73 coding sequence under the control of a CMV promoter, and stable CHO-CD73 cells were generated by antibiotic selection. Expression of CD73 was verified by flow cytometry using positive control antibodies. The stable CHO-CD73 cells were grown in suspension culture in RPMI media supplemented with 10% heat-inactivated FBS at 37° C. and 5% CO₂. […] The cells were then washed twice and analyzed using the LSRFortessa™ flow cytometer (BD Biosciences). FACS data were analyzed using FACS DIVA and WEHI Weasel software, and were plotted with Graphpad Prism software.
(§3) The affinities of the humanized anti-CD73 antibodies to membrane-associated CD73 were determined. Specifically, CHO cells ectopically expressing full-length human or cynomolgus CD73 were generated, and the binding of the antibodies to the cells were examined, using the method as described in Example 6.1.3.

cynomolgus CD73 on cells [10] = target: T5, cynomolgus CD73 on cells (cynomolgus, UniProt A0A2K5V5U7 27-549); experiment: flow cytometry on CHO cells expressing cynomolgus CD73; area under MFI curve
T5 construct: whole, on cells; also called full-length cynomolgus CD73 on CHO cells; CD73 on cynomolgus monkey CD8+ T cells
T5 sequence: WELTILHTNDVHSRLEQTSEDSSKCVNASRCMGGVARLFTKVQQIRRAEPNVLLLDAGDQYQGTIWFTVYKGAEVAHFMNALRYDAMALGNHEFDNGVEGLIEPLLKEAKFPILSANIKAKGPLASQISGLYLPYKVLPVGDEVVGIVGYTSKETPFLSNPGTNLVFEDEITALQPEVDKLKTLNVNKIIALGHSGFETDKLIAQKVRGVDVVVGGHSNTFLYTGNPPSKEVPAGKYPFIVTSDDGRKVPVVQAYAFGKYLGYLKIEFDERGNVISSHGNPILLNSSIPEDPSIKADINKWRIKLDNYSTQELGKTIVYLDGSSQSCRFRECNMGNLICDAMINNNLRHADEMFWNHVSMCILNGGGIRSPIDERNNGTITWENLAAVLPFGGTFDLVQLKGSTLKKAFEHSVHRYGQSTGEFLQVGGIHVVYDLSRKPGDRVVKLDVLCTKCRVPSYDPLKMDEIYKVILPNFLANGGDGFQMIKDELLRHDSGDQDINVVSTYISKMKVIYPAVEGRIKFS
Description: as §2, §3

human CD73 on cells [11] = target: T1, human CD73 on cells; experiment: flow cytometry, CHO cells expressing human CD73, MFI vs antibody concentration
cynomolgus CD73 on cells [12] = target: T5, cynomolgus CD73 on cells; experiment: flow cytometry, CHO cells expressing cynomolgus CD73, MFI vs antibody concentration
human CD73 on cells [13] = target: T1, human CD73 on cells; experiment: flow cytometry, CHO cells expressing human CD73 (panel CHO-huCD73), MFI vs antibody concentration
Description: as §2

mouse CD73 on cells = target: T6, mouse CD73 on cells (mouse, UniProt Q61503 29-551); experiment: flow cytometry, CHO cells expressing mouse CD73 (panel CHO-muCD73), MFI vs antibody concentration
T6 construct: whole, on cells; also called full-length mouse CD73 on CHO cells (CHO-muCD73); CD73 on mouse CD8+ T cells
T6 sequence (looked up): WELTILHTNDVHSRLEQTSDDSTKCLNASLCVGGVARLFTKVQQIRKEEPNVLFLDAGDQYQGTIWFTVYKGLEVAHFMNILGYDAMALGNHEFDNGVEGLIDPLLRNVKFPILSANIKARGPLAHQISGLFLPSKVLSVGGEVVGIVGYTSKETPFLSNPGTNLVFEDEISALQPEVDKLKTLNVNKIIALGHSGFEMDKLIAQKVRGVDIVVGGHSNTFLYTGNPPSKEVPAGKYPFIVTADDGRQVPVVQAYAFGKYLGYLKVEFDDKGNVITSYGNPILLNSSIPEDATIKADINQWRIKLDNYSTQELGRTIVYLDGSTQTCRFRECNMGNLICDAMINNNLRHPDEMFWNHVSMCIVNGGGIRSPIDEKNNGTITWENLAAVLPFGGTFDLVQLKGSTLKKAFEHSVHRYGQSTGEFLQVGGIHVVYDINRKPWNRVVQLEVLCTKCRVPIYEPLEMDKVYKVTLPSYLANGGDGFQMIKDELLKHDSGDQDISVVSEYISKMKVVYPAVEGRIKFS
Description: as §2

cynomolgus CD73 on cells [14] = target: T5, cynomolgus CD73 on cells; experiment: flow cytometry, CHO cells expressing cynomolgus CD73 (panel CHO-cyCD73), MFI vs antibody concentration
Description: as §2

B1: BA015 (antibody, human IgG1, kappa, N297A)
heavy: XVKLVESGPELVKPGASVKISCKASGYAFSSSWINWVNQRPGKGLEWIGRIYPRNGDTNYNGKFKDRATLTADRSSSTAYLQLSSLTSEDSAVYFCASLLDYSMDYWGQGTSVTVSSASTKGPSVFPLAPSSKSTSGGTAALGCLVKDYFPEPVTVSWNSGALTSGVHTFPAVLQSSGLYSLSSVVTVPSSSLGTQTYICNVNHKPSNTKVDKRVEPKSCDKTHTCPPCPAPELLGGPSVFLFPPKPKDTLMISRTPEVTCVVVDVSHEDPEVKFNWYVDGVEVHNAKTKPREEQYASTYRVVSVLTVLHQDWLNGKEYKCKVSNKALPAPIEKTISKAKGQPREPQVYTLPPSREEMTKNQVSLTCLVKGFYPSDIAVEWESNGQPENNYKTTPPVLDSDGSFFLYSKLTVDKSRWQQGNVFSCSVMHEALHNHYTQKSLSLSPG
light: DIQMTQSTSSLSASLGDRVTISCRASQDISNYLNWYQQKPDGTVKLLIYYTSRLHSGVPSRFSGSGSGTDYSLTISNLEQEDIATYFCQQGNTLPLTFGAGTKLELKRTVAAPSVFIFPPSDEQLKSGTASVVCLLNNFYPREAKVQWKVDNALQSGNSQESVTEQDSKDSTYSLSSTLTLSKADYEKHKVYACEVTHQGLSSPVTKSFNRGEC
modifications: X at position 1 is E or pyroglutamate
notes: chimeric: BA012 murine variable regions, human IgG1 N297A and human Igκ constant regions
- AUC, CD73 enzymatic activity on Jurkat cells expressing human CD73 (FIG. 2A) (human CD73 on cells [1]): 239
- AUC, CD73 enzymatic activity on Jurkat cells expressing human CD73 (FIGS. 6B-6P) (human CD73 on cells [2]): 328
- AUC, enzymatic activity of immobilized recombinant human CD73 (FIGS. 7B-7P) [3]: 91.2
- Kd [4]: 0.015 nM
- koff [4]: 0.00041 s⁻¹
- kon [4]: 2.8e+07 M⁻¹ s⁻¹
- Kd [5]: 0.3 nM
- koff [5]: 8.7e-05 s⁻¹
- kon [5]: 310000 M⁻¹ s⁻¹
- Kd [6]: 10 nM
- koff [6]: 0.0006 s⁻¹
- kon [6]: 61000 M⁻¹ s⁻¹
- Kd [7]: 0.088 nM
- koff [7]: 0.0002 s⁻¹
- kon [7]: 2.27e+06 M⁻¹ s⁻¹
- Kd [8]: 0.07 nM
- koff [8]: 8.3e-05 s⁻¹
- kon [8]: 1.14e+06 M⁻¹ s⁻¹
- AUC (human CD73 on cells [9]): 113000
- AUC (cynomolgus CD73 on cells [10]): 2440
- EC50 (read off the curve) (human CD73 on cells [11]): ~0.1 µg/mL
- EC50 (read off the curve) (cynomolgus CD73 on cells [12]): ~0.2 µg/mL
- EC50 (read off the curve) (human CD73 on cells [13]): ~0.2 µg/mL
- EC50 (read off the curve) (mouse CD73 on cells): ~0.4 µg/mL
- EC50 (read off the curve) (cynomolgus CD73 on cells [14]): ~0.5 µg/mL
